IntAct's records for PubMed 9461438

B1: WD repeat-containing protein slp1 (Schizosaccharomyces pombe (strain ATCC 38366 / 972)), P78972 (parent)
chain: MEIAGNSSTISPTFSTPTKKRNLVFPNSPITPLHQQALLGRNGRSSKRCSPKSSFIRNSPKIDVVNTDWSIPLCGSPRNKSRPASRSDRFIPSRPNTANAFVNSISSDVPFDYSESVAEACGFDLNTRVLAFKLDAPEAKKPVDLRTQHNRPQRPVVTPAKRRFNTTPERVLDAPGIIDDYYLNLLDWSNLNVVAVALERNVYVWNADSGSVSALAETDESTYVASVKWSHDGSFLSVGLGNGLVDIYDVESQTKLRTMAGHQARVGCLSWNRHVLSSGSRSGAIHHHDVRIANHQIGTLQGHSSEVCGLAWRSDGLQLASGGNDNVVQIWDARSSIPKFTKTNHNAAVKAVAWCPWQSNLLATGGGTMDKQIHFWNAATGARVNTVDAGSQVTSLIWSPHSKEIMSTHGFPDNNLSIWSYSSSGLTKQVDIPAHDTRVLYSALSPDGRILSTAASDENLKFWRVYDGDHVKRPIPITKTPSSSITIR
partner: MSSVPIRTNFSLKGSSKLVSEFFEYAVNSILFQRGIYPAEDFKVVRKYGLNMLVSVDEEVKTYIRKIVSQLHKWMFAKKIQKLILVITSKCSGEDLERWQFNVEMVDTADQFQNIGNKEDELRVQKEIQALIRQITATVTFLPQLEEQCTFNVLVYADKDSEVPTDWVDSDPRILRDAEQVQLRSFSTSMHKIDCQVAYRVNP

Variants of: B1
Details: with mad2_schpo mad2, O14417

Row | effect of a mutation on the interaction | Variant
1 | disrupting interaction | A131P;F132Y
